Data published in patent publication KR20160003317A (dated 2016).

Target: T1, 송아지 혈청 알부민(BSA) (bovine (printed: 송아지 혈청 알부민), UniProt P02769 25-607)
T1 construct: also called bovine serum albumin
Experiment: phage ELISA, 1% BSA coated, anti-M13-peroxidase, absorbance 492 nm

T1 sequence (P02769 25-607 limits assumed): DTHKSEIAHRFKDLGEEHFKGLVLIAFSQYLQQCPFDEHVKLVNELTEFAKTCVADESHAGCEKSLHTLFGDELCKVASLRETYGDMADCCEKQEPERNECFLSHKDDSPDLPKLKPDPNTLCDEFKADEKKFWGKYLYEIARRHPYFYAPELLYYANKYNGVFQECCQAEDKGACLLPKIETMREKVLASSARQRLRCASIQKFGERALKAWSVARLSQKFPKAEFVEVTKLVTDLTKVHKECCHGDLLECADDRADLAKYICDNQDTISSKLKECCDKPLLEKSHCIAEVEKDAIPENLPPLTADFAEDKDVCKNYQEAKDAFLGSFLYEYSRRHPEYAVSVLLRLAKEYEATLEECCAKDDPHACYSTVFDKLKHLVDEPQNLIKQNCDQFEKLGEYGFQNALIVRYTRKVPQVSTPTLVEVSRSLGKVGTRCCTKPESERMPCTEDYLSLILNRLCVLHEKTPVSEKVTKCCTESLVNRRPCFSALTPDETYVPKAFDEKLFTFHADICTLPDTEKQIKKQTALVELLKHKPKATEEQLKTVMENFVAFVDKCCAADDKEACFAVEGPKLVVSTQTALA

| Binder | binding result |
| --- | --- |
| SC06-050 (scFv, single-chain phage antibody: the scFv stood on phage in the ELISA; also called SC05-050) scFv: EVQLVESGPEVKKPGASVKVSCEASGYNLDNYGITWVRQAPGQGLEWLGWISAYNAKTEYGQRLQGRVTMTTDTATSTAYLELRSLRSDDTAVYYCARVLGYRGGWYDEGDAFDVWGQGTMVTVSSGTGGSGGTGSGTGGSTDIQLTQSPSFLSASVGDRVTITCRASQGIRSHLAWYQQKAGKAPKLLIYAASTLQSGVPSRFSGSGSGTEFTLTISSLQPDDFAAYYCQQLNTYPITFGQGTRLEIK | no binding |
| SC06-432 (scFv, single-chain phage antibody: the scFv stood on phage in the ELISA) scFv: QLQLQESGPGLVKPSQTLSLTCTVSGGSISSGGYYWSWIRQHPGKGLEWIGYIYYSGSTYYNPSLKSRVTISVDTSKNQFSLKLSSVTAADTAVYYCARERILDRMNDYWGQGTLVTVSSGTGGSGGTGSGTGGSTQSVVTQPPSVSGAPGQRVTISCTGSSSNIGAGYDVHWYQQLPGTAPKLLIYGNSNRPSGVPDRFSGSKSGTSASLAITGLQAEDEADYYCQSSDSSLNILFGGGTKLTVL | no binding |
| SC06-043 (scFv, single-chain phage antibody: the scFv stood on phage in the ELISA) scFv: EVQLVESGAEVKKPGESLKISCKGSGYSFTSYWIGWVRQMPGKGLEWMGIIYPGDSDTRYSPSFQGQVTISADKSISTAYLQWSSLKASDTAMYYCARRYCSGGTCSDGFDIWGQGTMVTVSSGTGGSGGTGSGTGGSTQSALTQPPSASGSPGQSVTISCTGTSSDVGGYNYVSWYQQHPGKAPKLMIYEVSKRPSGVPDRFSGSKSGNTASLTVSGLQAEDEADYYCSSYAGSNNLVFGGGTKLTVL | no binding |
| SC06-049 (scFv, single-chain phage antibody: the scFv stood on phage in the ELISA) scFv: QVQLVQSGAEVKKPGESLKISCKGSGYSFTSYWIGWVRQMPGKGLEWMGIIYPGDSDTRYSPSFQGQVTISADKSIGTAYLQWSSLKASDTAMYYCARLFRVRGGHFDSWGQGTLVTVSSGTGGSGGTGSGTGGSTQSALTQPASVSGSPGQSITISCTGTNSDVGGYNYVSWYQQHPGKAPKLLIYDVTNRPSGVSNRFSASKSGNTASLTISGLQAEDEADYYCSSFTSSSTRVFGGGTKLTVL | no binding |
| SC06-016 (scFv, single-chain phage antibody: the scFv stood on phage in the ELISA) scFv: QVQLVQSGPEVKKPGASVTVSCKASGYSFSSYGISWVRQAPGQGLEWMGRIIPVGGNTLYSQMFQGRVTMTSDTSTSTVYLELSSLRSEDTAVYFCARDGGRWQFDYWGQGTLVTVSSGTGGSGGTGSGTGGSTDIQLTQSPSSVSASVGDRVTITCRASQGISNWLAWYQQKPGKAPELLIYAASSLQSGVPPRFSGSASGTDFTLTISSLQPEDFATYYCQQSKNFPYTFGQGTKVEIK | no binding |
| SC05-187 (scFv, single-chain phage antibody: the scFv stood on phage in the ELISA) scFv: EVQLVQSGAEVKKPGESLKISCKGSGYSFTKYWIGWVRQMPGKGLEWMGIIYPGDSDTRYSPSFQGQVTISADKSISTAYLQWSSLKASDTAMYYCARGSGIATGNSFDSWGQGTLVTVSSGTGGSGGTGSGTGGSTQTVVTQEPSLTVSPGGTVTLTCASSTGAVTSGYYPNWFQQKPGQAPRALIYSTSKKHSWTPARFSGSLLGGRAALTLSGAQPEDEADYYCLLSYGGARVFGGGTKLTVL | no binding |
| SC06-429 (scFv, single-chain phage antibody: the scFv stood on phage in the ELISA) scFv: QVQLVQSGAEVKNPGESLKISCKGSGYTFTSYWIGWVRQMPGKGLEWMGSIYPGDSDTRYSPSFQGQVTISVDKSISTAYLQWSSLKASDTAMYYCARQYRAGSTTRFDPWGQGTLVTVSSGTGGSGGTGSGTGGSTDVVMTQSPLSLPVTPGEPASISCRSSQSLRHRNGNNYLDWYLQKPGQSPQLLIYLGSNRASGVPDRFSGSGSGTDFTLKISRVEAEDVGIYYCMQALQTPLTFGGGTKVEIK | no binding |
| SC05-179 (scFv, single-chain phage antibody: the scFv stood on phage in the ELISA) scFv: EVQLVESGGGLVKPGGSLGLSCAASGFFFSDYSMSWIRQAPGKGLEWLSNISGSGHSTKYAESMRGRITISRDNAKKSLSLQLNSLRAEDTAVYFCVRGGGYRMDVWGQGTTVTVSSGTGGSGGTGSGTGGSTQSALTQPRSVPGSPGQSVTISCTGTSSDVGGYNYVSWYQQHPGKAPKLMIYDVSKRPSGVPDRFSGSKSGNTASLTVSGLQAEDEADYYCSSYAGSNNFVVFGGGTKLTVL | no binding |
